The target of assay [1] is PN45545 TCR-CD3, strep-tagged, detergent-solubilized (SPR reagent) (humanized VelociT mouse | not stated) (UniProt P07766). Description: SPR. To be noted: peptide-MHC.
Assay [2] deals with PN45428 TCR-CD3, strep-tagged, detergent-solubilized (SPR reagent) (humanized VelociT mouse | not stated) (UniProt P07766). Description: SPR. To be noted: peptide-MHC.

Broadly, the Kd is the constant that tells how readily two partners part at equilibrium.

As for “single-chain disulfide-stabilized MAGEA4 (230-239) pMHC (from UniProt P61769 21-119)”, the dissociation constant Kd in assay [1] was 6.1 µM. For the substance “single-chain disulfide-stabilized MAGEA8 (232-241) pMHC (from UniProt P61769 21-119)”, the dissociation constant Kd in assay [2] was found to be 260 µM; in assay [1] it was 420 µM.

The values are drawn from PMC10132440.
